Measurements from IntAct's records for PubMed 20664522.

B1: CAP-Gly domain-containing linker protein 1 (Homo sapiens), P30622 (parent)
chain: MSMLKPSGLKAPTKILKPGSTALKTPTAVVAPVEKTISSEKASSTPSSETQEEFVDDFRVGERVWVNGNKPGFIQFLGETQFAPGQWAGIVLDEPIGKNDGSVAGVRYFQCEPLKGIFTRPSKLTRKVQAEDEANGLQTTPASRATSPLCTSTASMVSSSPSTPSNIPQKPSQPAAKEPSATPPISNLTKTASESISNLSEAGSIKKGERELKIGDRVLVGGTKAGVVRFLGETDFAKGEWCGVELDEPLGKNDGAVAGTRYFQCQPKYGLFAPVHKVTKIGFPSTTPAKAKANAVRRVMATTSASLKRSPSASSLSSMSSVASSVSSRPSRTGLLTETSSRYARKISGTTALQEALKEKQQHIEQLLAERDLERAEVAKATSHVGEIEQELALARDGHDQHVLELEAKMDQLRTMVEAADREKVELLNQLEEEKRKVEDLQFRVEEESITKGDLEQKSQISEDPENTQTKLEHARIKELEQSLLFEKTKADKLQRELEDTRVATVSEKSRIMELEKDLALRVQEVAELRRRLESNKPAGDVDMSLSLLQEISSLQEKLEVTRTDHQREITSLKEHFGAREETHQKEIKALYTATEKLSKENESLKSKLEHANKENSDVIALWKSKLETAIASHQQAMEELKVSFSKGLGTETAEFAELKTQIEKMRLDYQHEIENLQNQQDSERAAHAKEMEALRAKLMKVIKEKENSLEAIRSKLDKAEDQHLVEMEDTLNKLQEAEIKVKELEVLQAKCNEQTKVIDNFTSQLKATEEKLLDLDALRKASSEGKSEMKKLRQQLEAAEKQIKHLEIEKNAESSKASSITRELQGRELKLTNLQENLSEVSQVKETLEKELQILKEKFAEASEEAVSVQRSMQETVNKLHQKEEQFNMLSSDLEKLRENLADMEAKFREKDEREEQLIKAKEKLENDIAEIMKMSGDNSSQLTKMNDELRLKERDVEELQLKLTKANENASFLQKSIEDMTVKAEQSQQEAAKKHEEEKKELERKLSDLEKKMETSHNQCQELKARYERATSETKTKHEEILQNLQKTLLDTEDKLKGAREENSGLLQELEELRKQADKAKAAQTAEDAMQIMEQMTKEKTETLASLEDTKQTNAKLQNELDTLKENNLKNVEELNKSKELLTVENQKMEEFRKEIETLKQAAAQKSQQLSALQEENVKLAEELGRSRDEVTSHQKLEEERSVLNNQLLEMKKRESKFIKDADEEKASLQKSISITSALLTEKDAELEKLRNEVTVLRGENASAKSLHSVVQTLESDKVKLELKVKNLELQLKENKRQLSSSSGNTDTQADEDERAQESQIDFLNSVIVDLQRKNQDLKMKVEMMSEAALNGNGDDLNNYDSDDQEKQSKKKPRLFCDICDCFDLHDTEDCPTQAQMSEDPPHSTHHGSRGEERPYCEICEMFGHWATNCNDDETF
B2: CAP-Gly domain-containing linker protein 1 (Rattus norvegicus (Rat)), Q9JK25 (parent)
chain: MSMLKPSGLKAPTKILKPGSTALKTPAAAAAPLEKTVPSEKASGPPSSETQEEFVDDFRVGERVWVNGNKPGFIQFLGETQFAPGQWAGIVLDEPIGKNDGSVAGVRYFQCEPLKGIFTRPSKLTRKVQAEDEANGLQTAHARAASPLSTAAATMVSSSPATPSNIPQKPSQPVAKETSATPQISNLTKTASESISNLSEAGSVKKGERELKIGDRVLVGGTKAGVVRFLGETDFAKGEWCGVELDEPLGKNDGAVAGTRYFQCQPKYGLFAPVHKVTKIGFPSTTPAKAKAAAVRRVMATTPASLKRSPSASSLSSMSSVASSVSSKPSRTGLLTETSSRYARKISGTTALQEALKEKQQHIEQLLAERDLERAEVAKATSHVGEIEQELALARDGHDQHVLELEAKMDQLRTMVEAADREKVELLNQLEEEKRKVEDLQFRVEEESITKGDLETQTKLEHARIKELEQSLLFEKTKADKLQRELEDTRVATVSEKSRIMELEKDLALRVQEVAELRRRLESSKPPGDVDMSLSLLQEISALQEKLEVTHTDHQNEVTSLKDHFGTREEMFQKEIKALHAATEKLSKENESLRSKLDHANKENSDVIALWKSKLETAIASHQQAMEELKVSFSKGIGTDSAEFAELKTQIERLRLDYQHEIESLQSKQDSERSAHAKEMESMKAKLMKIIKEKEDSLEAVKARLDTAEDQHLVEMEEMLSKLQEAEIKKEKFASASEEAVSTQTSMQDTVNKLHQKEEQFNMLSSELEKLRENLTDMEAKFKEKDEREDQLVKAKEKLENDIAEIMKMSGDNSSQLTKMNDELRLKERSVEELQLKLTKANENASLLQKSIGEVTLKAEQSQQEAAKKHEEEKKELENKLLELEKKMETSHYQCQDLKAKYEKASSETKIKHEEILQNFQKMLVDTEDKLKAAQEANRDLMQDMEELKSQADKAKAAQTAEDAMQIMEQMTKEKTETLASLEDTKQTNAKLQSELDTLKENNLKTVEELNKSKELLNEENQKMEEFKKEIETLKQAAAQKSQQLSALQEENVKLAEELGRTRDEVTSHQKLEEERSVLNNQLLEMKKSLPSNTLRESEYRKDADEEKASLQKSISLTSALLTEKDAELEKLRNEVTVLRGENASAKSLHSVVQTLESDKVKLELKVKNLELQLKENKRQLSSSSGNTDVQTEEDERAQESQQMIDFLNSVIVDLQRKNQDLKMKVEMMSEAALNGNGEDPNSYDSDDQEKQSKKKPRLFCDICDCFDLHDTEDCPTQAQMSEDPPHSTHHGSRSEERPYCEICEMFGHWATNCNDDETF

Variants of: B1
Settings: with csk2b_human CSNK2B
Target sequence in this assay (P67870 whole entry): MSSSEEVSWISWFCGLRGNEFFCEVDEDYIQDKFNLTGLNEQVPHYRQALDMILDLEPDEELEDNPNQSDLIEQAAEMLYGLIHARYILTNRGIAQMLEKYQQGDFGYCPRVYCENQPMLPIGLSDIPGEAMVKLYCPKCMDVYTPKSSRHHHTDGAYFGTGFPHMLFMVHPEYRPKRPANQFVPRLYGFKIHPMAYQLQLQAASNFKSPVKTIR

Row | effect of a mutation on the interaction | Variant
1 | decreasing interaction | S195A

Variants of: B2
Settings: with dctn1_human DCTN1, Q14203
Chain of dctn1_human DCTN1, Q14203 (Q14203 whole entry): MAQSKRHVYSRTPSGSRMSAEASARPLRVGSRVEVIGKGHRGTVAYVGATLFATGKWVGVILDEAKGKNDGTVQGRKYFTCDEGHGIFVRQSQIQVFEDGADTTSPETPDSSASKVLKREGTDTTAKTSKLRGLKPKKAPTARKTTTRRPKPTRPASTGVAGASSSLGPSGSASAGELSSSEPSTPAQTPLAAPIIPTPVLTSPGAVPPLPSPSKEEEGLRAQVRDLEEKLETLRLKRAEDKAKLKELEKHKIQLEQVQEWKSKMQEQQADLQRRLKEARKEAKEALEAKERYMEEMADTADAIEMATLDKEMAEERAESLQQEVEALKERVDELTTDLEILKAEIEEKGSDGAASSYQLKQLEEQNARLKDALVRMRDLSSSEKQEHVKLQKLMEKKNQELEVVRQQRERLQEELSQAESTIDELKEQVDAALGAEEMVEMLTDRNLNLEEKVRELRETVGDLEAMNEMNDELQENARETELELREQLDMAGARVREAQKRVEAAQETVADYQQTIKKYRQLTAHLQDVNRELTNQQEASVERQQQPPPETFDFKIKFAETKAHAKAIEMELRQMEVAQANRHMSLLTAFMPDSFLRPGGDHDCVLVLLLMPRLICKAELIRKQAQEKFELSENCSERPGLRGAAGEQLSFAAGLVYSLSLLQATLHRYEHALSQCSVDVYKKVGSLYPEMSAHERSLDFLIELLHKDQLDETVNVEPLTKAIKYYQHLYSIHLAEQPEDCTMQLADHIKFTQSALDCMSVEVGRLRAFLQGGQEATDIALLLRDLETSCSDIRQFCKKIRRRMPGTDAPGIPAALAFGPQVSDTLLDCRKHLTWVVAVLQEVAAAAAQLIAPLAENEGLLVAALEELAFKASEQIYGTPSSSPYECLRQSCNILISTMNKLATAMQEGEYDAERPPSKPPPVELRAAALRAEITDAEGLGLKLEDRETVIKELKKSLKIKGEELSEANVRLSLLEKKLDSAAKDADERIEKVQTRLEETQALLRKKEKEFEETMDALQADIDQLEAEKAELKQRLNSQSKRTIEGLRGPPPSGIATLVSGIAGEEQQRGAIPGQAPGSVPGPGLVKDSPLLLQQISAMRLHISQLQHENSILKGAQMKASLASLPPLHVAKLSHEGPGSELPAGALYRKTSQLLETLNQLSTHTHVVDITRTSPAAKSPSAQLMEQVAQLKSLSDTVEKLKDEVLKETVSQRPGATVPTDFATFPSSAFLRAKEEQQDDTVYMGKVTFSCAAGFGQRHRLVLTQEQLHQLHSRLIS

Row | effect of a mutation on the interaction | Variant
2 | decreasing interaction | S1246A

Variants of: B2
Settings: with dctn1_human DCTN1, Q14203
Remark: another data set of the same source

Row | effect of a mutation on the interaction | Variant
3 | disrupting interaction | S194A

Variants of: B2
Settings: with csk2b_human CSNK2B
Target sequence in this assay (P67870 whole entry): as the sequence (P67870 whole entry) above

Row | effect of a mutation on the interaction | Variant
4 | increasing interaction | S194E
